Source: PMC5641629

Biological target: penicillin binding protein 2a (PBP2a) lacking the N-terminal 40 amino acid membrane-spanning domain (Staphylococcus aureus (MRSA))
Assay: SPR

Row | Substance | Kd | kon | koff
1 | BLIP-II E268A (from UniProt O87916 1-311) (natural protein) | 4700 nM | 424 M⁻¹ s⁻¹ | –
2 | BLIP-II I229A (from UniProt O87916 1-311) (natural protein) | 3400 nM | 339 M⁻¹ s⁻¹ | 0.00115 s⁻¹
3 | BLIP-II L91A (from UniProt O87916 1-311) (natural protein) | 4000 nM | 168 M⁻¹ s⁻¹ | 0.00066 s⁻¹
4 | BLIP-II F209A (from UniProt O87916 1-311) (natural protein) | 6000 nM | 137 M⁻¹ s⁻¹ | 0.00078 s⁻¹
5 | BLIP-II N50A (from UniProt O87916 1-311) (natural protein) | 450 nM | 1540 M⁻¹ s⁻¹ | 0.000719 s⁻¹
6 | BLIP-II Y113A (from UniProt O87916 1-311) (natural protein) | 4000 nM | 217 M⁻¹ s⁻¹ | –
7 | BLIP-II W269A (from UniProt O87916 1-311) (natural protein) | 3100 nM | 375 M⁻¹ s⁻¹ | 0.00116 s⁻¹
8 | BLIP-II Y248A (from UniProt O87916 1-311) (natural protein) | – | 114 M⁻¹ s⁻¹ | 0.00086 s⁻¹
9 | BLIP-II S169A (from UniProt O87916 1-311) (natural protein) | 1400 nM | 504 M⁻¹ s⁻¹ | 0.00074 s⁻¹
10 | BLIP-II N112A (from UniProt O87916 1-311) (natural protein) | 1200 nM | 1190 M⁻¹ s⁻¹ | 0.0014 s⁻¹
11 | BLIP-II Y73A (from UniProt O87916 1-311) (natural protein) | 1200 nM | 961 M⁻¹ s⁻¹ | 0.00119 s⁻¹
12 | BLIP-II W152A (from UniProt O87916 1-311) (natural protein) | – | 185 M⁻¹ s⁻¹ | 0.0012 s⁻¹
13 | BLIP-II N51A (from UniProt O87916 1-311) (natural protein) | 700 nM | 1270 M⁻¹ s⁻¹ | 0.00086 s⁻¹
14 | BLIP-II T57A (from UniProt O87916 1-311) (natural protein) | 600 nM | 1750 M⁻¹ s⁻¹ | 0.00095 s⁻¹
15 | BLIP-II D52A (from UniProt O87916 1-311) (natural protein) | 1800 nM | 354 M⁻¹ s⁻¹ | 0.00061 s⁻¹
